{
  "source": "the supplement of paper PMC9112550",
  "about": "“Optimization of the antimicrobial peptide Bac7 by deep mutational scanning” (BMC Biology, 2022);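 also: peptides expressed intracellularly from a pBAD plasmid library in pooled LB shake-flask culture, induced with 0.3% L-arabinose, DNA abundance read by NGS, three biological replicates, DESeq2 with apeglm shrinkage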",
  "data": [
    {"system": "Escherichia coli TOP10", "experiment": "shrunken log2 fold change of peptide-encoding DNA abundance (4.5 h post-induction vs induction); higher = less antimicrobial activity (less host growth inhibition)", "conditions": "time post-induction: 4.5 h; library: site-saturation at positions 5, 18, 19, 20", "values": [
      {"sequence": "RRIRYRPPRLPRPRPRPMCQPRP", "shrunken log2 fold change": -0.394},
      {"sequence": "RRIRVRPPRLPRPRPRPAMPPRP", "shrunken log2 fold change": 0.0637},
      {"sequence": "RRIRSRPPRLPRPRPRPGIAPRP", "shrunken log2 fold change": 0.409},
      {"sequence": "RRIRQRPPRLPRPRPRPQYCPRP", "shrunken log2 fold change": 0.0332},
      {"sequence": "RRIRWRPPRLPRPRPRPVTYPRP", "shrunken log2 fold change": 0.186},
      {"sequence": "RRIRVRPPRLPRPRPRPLPFPRP", "shrunken log2 fold change": -0.367},
      {"sequence": "RRIRYRPPRLPRPRPRPWEPPRP", "shrunken log2 fold change": -0.0182},
      {"sequence": "RRIRGRPPRLPRPRPRPGGVPRP", "shrunken log2 fold change": 1.06},
      {"sequence": "RRIRMRPPRLPRPRPRPMKDPRP", "shrunken log2 fold change": 0.251},
      {"sequence": "RRIRFRPPRLPRPRPRPHGIPRP", "shrunken log2 fold change": -0.00151},
      {"sequence": "RRIRARPPRLPRPRPRPNQCPRP", "shrunken log2 fold change": -0.176},
      {"sequence": "RRIRVRPPRLPRPRPRPIVMPRP", "shrunken log2 fold change": -0.107},
      {"sequence": "RRIRYRPPRLPRPRPRPFCGPRP", "shrunken log2 fold change": -0.133},
      {"sequence": "RRIRSRPPRLPRPRPRPTVSPRP", "shrunken log2 fold change": -0.221},
      {"sequence": "RRIRKRPPRLPRPRPRPMFQPRP", "shrunken log2 fold change": -0.0168},
      {"sequence": "RRIRPRPPRLPRPRPRPDWAPRP", "shrunken log2 fold change": 0.0079},
      {"sequence": "RRIRVRPPRLPRPRPRPHCMPRP", "shrunken log2 fold change": -0.414},
      {"sequence": "RRIRWRPPRLPRPRPRPHLHPRP", "shrunken log2 fold change": -0.043},
      {"sequence": "RRIRHRPPRLPRPRPRPIDYPRP", "shrunken log2 fold change": -0.017},
      {"sequence": "RRIRERPPRLPRPRPRPCAMPRP", "shrunken log2 fold change": -0.0091},
      {"sequence": "RRIRNRPPRLPRPRPRPHYDPRP", "shrunken log2 fold change": -0.775},
      {"sequence": "RRIRVRPPRLPRPRPRPQPPPRP", "shrunken log2 fold change": 0.298},
      {"sequence": "RRIRMRPPRLPRPRPRPYDTPRP", "shrunken log2 fold change": -0.171},
      {"sequence": "RRIRERPPRLPRPRPRPKDNPRP", "shrunken log2 fold change": -0.342},
      {"sequence": "RRIRGRPPRLPRPRPRPQDFPRP", "shrunken log2 fold change": 0.178},
      {"sequence": "RRIRSRPPRLPRPRPRPCVRPRP", "shrunken log2 fold change": -0.103},
      {"sequence": "RRIRKRPPRLPRPRPRPDVQPRP", "shrunken log2 fold change": -0.00299},
      {"sequence": "RRIRNRPPRLPRPRPRPANCPRP", "shrunken log2 fold change": -0.185},
      {"sequence": "RRIRGRPPRLPRPRPRPTDKPRP", "shrunken log2 fold change": 0.705},
      {"sequence": "RRIRRRPPRLPRPRPRPAEGPRP", "shrunken log2 fold change": -0.0943},
      {"sequence": "RRIRQRPPRLPRPRPRPGIWPRP", "shrunken log2 fold change": 0.0216},
      {"sequence": "RRIRARPPRLPRPRPRPWGMPRP", "shrunken log2 fold change": -0.00469},
      {"sequence": "RRIRMRPPRLPRPRPRPRYTPRP", "shrunken log2 fold change": 0.338},
      {"sequence": "RRIRQRPPRLPRPRPRPQDFPRP", "shrunken log2 fold change": -0.372},
      {"sequence": "RRIRARPPRLPRPRPRPKTVPRP", "shrunken log2 fold change": 0.141},
      {"sequence": "RRIRQRPPRLPRPRPRPNCMPRP", "shrunken log2 fold change": 0.188},
      {"sequence": "RRIRCRPPRLPRPRPRPAATPRP", "shrunken log2 fold change": 0.776},
      {"sequence": "RRIRKRPPRLPRPRPRPCQRPRP", "shrunken log2 fold change": -0.00088},
      {"sequence": "RRIRGRPPRLPRPRPRPIMFPRP", "shrunken log2 fold change": 0.382},
      {"sequence": "RRIRIRPPRLPRPRPRPTQAPRP", "shrunken log2 fold change": -0.00254},
      {"sequence": "RRIRIRPPRLPRPRPRPGRFPRP", "shrunken log2 fold change": 0.138},
      {"sequence": "RRIRVRPPRLPRPRPRPSYDPRP", "shrunken log2 fold change": -0.576},
      {"sequence": "RRIRARPPRLPRPRPRPFCNPRP", "shrunken log2 fold change": -0.0929},
      {"sequence": "RRIRMRPPRLPRPRPRPMNPPRP", "shrunken log2 fold change": 0.12},
      {"sequence": "RRIRHRPPRLPRPRPRPAVEPRP", "shrunken log2 fold change": -0.0419},
      {"sequence": "RRIRQRPPRLPRPRPRPRNRPRP", "shrunken log2 fold change": 0.0911},
      {"sequence": "RRIRGRPPRLPRPRPRPMRLPRP", "shrunken log2 fold change": 1.05},
      {"sequence": "RRIRYRPPRLPRPRPRPMLLPRP", "shrunken log2 fold change": -0.871},
      {"sequence": "RRIRRRPPRLPRPRPRPTPNPRP", "shrunken log2 fold change": 0.945},
      {"sequence": "RRIRMRPPRLPRPRPRPLNSPRP", "shrunken log2 fold change": -0.0401},
      {"sequence": "RRIRWRPPRLPRPRPRPYMDPRP", "shrunken log2 fold change": -0.551},
      {"sequence": "RRIRDRPPRLPRPRPRPRMIPRP", "shrunken log2 fold change": -0.237},
      {"sequence": "RRIRKRPPRLPRPRPRPFQNPRP", "shrunken log2 fold change": -0.0235},
      {"sequence": "RRIRIRPPRLPRPRPRPPWAPRP", "shrunken log2 fold change": 0.388},
      {"sequence": "RRIRPRPPRLPRPRPRPKNEPRP", "shrunken log2 fold change": -0.119},
      {"sequence": "RRIRVRPPRLPRPRPRPSLVPRP", "shrunken log2 fold change": 0.974},
      {"sequence": "RRIRIRPPRLPRPRPRPAFKPRP", "shrunken log2 fold change": -0.317},
      {"sequence": "RRIRMRPPRLPRPRPRPATKPRP", "shrunken log2 fold change": 0.103},
      {"sequence": "RRIRRRPPRLPRPRPRPAGQPRP", "shrunken log2 fold change": 1.41},
      {"sequence": "RRIRNRPPRLPRPRPRPRRRPRP", "shrunken log2 fold change": 0.558}
    ]}
  ]
}
